Results: US20220174981A1, “PROLINE TOLERANT TRIPEPTIDYL PEPTIDASES AND USES THEREOF” (DuPont Nutrition Biosciences APS, priority 2014, published 2022)
Where “and” joins values, the source holds several entries; their conditions need not be identical. Identical values can stand only once.

B1: TRI071: Proline tolerant tripeptidyl peptidase TRI071 (SEQ ID No. 12 or SEQ ID No. 39) (protein, listed as Fusarium oxysporum)
chain 1: KSFSHHAEAPQGWQVQKTAKVASNTQHVFSLALTMQNVDQLESKLLDLSSPDSANYGNWLSHDELTSTFSPSKEAVASVTKWLKSKGIKHYKVNGAFIDFAADVEKANTLLGGDYQYYTKDGQTKLRTLSYSIPDDVAGHVQFVDPSTNFGGTVAFNPVPHPSRTLQERKVSPSKSTVDASCQTSITPSCLKQMYNIGDYTPDAKSGSEIGFSSFLGQAAIYSDVFKFEELFGIPKQNYTTILINNGTDDQNTAHGNFGEANLDAENIVGIAHPLPFKQYITGGSPPFVPNIDQPTEKDNQNEPYVPFFRYLLGQKDLPAVISTSYGDEEDSVPREYATLTCNMIGLLGLRGISVIFSSGDIGVGSGCLAPDYKTVEFNAIFPATCPYLTSVGGTVDVTPEIAWEGSSGGFSKYFPRPSYQDKAIKKYMKTVSKETKKYYGPYTNWEGRGFPDVAGHSVAPDYEVIYNGKQARSGGTSAAAPVWAAIVGLLNDARFKAGKKSLGWLNPLIYKHGPKVLTDITGGYAIGCDGNNTQSGKPEPAGSGLVPGARWNATAGWDPTTGYGTPNFQKLKDLVLSL
chain 2: CQTSITPSCLKQMYNIGDYTPDAKSGSEIGFSSFLGQAAIYSDVFKFEELFGIPKQNYTTILINNGTDDQNTAHGNFGEANLDAENIVGIAHPLPFKQYITGGSPPFVPNIDQPTEKDNQNEPYVPFFRYLLGQKDLPAVISTSYGDEEDSVPREYATLTCNMIGLLGLRGISVIFSSGDIGVGSGCLAPDYKTVEFNAIFPATCPYLTSVGGTVDVTPEIAWEGSSGGFSKYFPRPSYQDKAIKKYMKTVSKETKKYYGPYTNWEGRGFPDVAGHSVAPDYEVIYNGKQARSGGTSAAAPVWAAIVGLLNDARFKAGKKSLGWLNPLIYKHGPKVLTDITGGYAIGCDGNNTQSGKPEPAGSGLVPGARWNATAGWDPTTGYGTPNFQKLKDLVLS

What was measured:
[1] = target: proline tolerant tripeptidyl peptidase (TRI083); test: Product inhibition of TRI083 (Ala-Ala-Ala-pNA substrate); assay type: biochemical, T. reesei; settings: treated as competitive inhibitors
Experimental: For proline tolerant tripeptidyl peptidase the chromogenic peptide H-Ala-Ala-Ala-pNA was used. The assay was conducted as follows, 27.5 μL of appropriately diluted enzyme was added to 200 μl McIlvaine buffer (20 mM, pH 4.0). After incubation at 50° C. for 5 min, 12.5 μL of the chromogenic peptide solution (5 mg/mL dissolved in dimethyl sulfoxide (DMSO); Sigma-Aldrich, Denmark) were added to the reaction mixture. The reaction was terminated by adding 50 μL of 0.5 M trichloroacetic acid (TCA; Sigma-Aldrich, Denmark). After centrifugation (15,000×g, 5 min), 240 μL of the solution were transferred to a microtiter plate (MTP; Kisker-biotech, Germany) and the absorption was measured in an MTP reader (Molecular Devices, Denmark) at 405 nm. One katal of proteolytic activity was defined as the amount of enzyme required to release 1 mol of p-nitroaniline per second.
Inhibition experiments were conducted with TRI083 and Ala-Ala-Ala-pNA ([…]) as substrate in the assay described in Example 8. The assay was run without inhibitor, with 3.6 mM tripeptide (H-Ala-Ala-Ala-OH; Bachem, Switzerland), 18 mM dipeptide (H-Ala-Ala-OH; Bachem, Switzerland) or 18 mM alanine (Sigma-Aldrich, Denmark). […]
Subsequently, TRI083 was analyzed for product inhibition without inhibitor, with 1 mg/mL H-Ala-Ala-Ala-OH as well with the PepN pre-hydrolyzed H-Ala-Ala-Ala-OH (1 mg/mL).

[2] = test system: H-Ala-Ala-Phe-pNA; test: Low pH stability of tripeptidyl peptidases (pH 2.5, 40° C., 60 min), activity on H-Ala-Ala-Phe-pNA; assay type: biochemical; settings: for OD410nm (Final): after pH 2.5, 40° C., 60 min; for OD410nm (Initial): without incubation at 40° C. for 60 min
Experimental: As requirements for utilization of the enzymes in feed for monogastric animals, the enzymes should be active at lower pH. For this reason the number of tripeptidyl peptidases has been tested with the reaction on synthetic substrate AAF (H-Ala-Ala-Phe-pNA. BACHEM, L-1095), at pH 2.5.
The tripeptide substrate AAF was prepared at 2.5 mg/ml in DMSO. Tripeptidyl peptidases were used as broth. The reaction mixture containing 2.5 μl enzyme and 90 μL glycine acetic acid-Tris buffer (each buffer components at 50 mM, pH 2.5) was prepared in 96 well incubation plates.
The incubation plate was mixed and incubated at 40° C. for 60 min. Then 50 μl 0.2M Mes-NaOH pH6.0 was added to each well, mixed at 600 rpm for 2 min. After that, 5 ul of the incubation mixture were taken to 96 well assay plate already filled with 85 μl 0.1M acetic acid buffer, pH4.0 and 5 μl 2.5 mg/ml AAF substrate solution.
The reaction mixture was stirred at 600 rpm for 2 min and read directly in a microplate reader (Molecular Devices, Denmark) at 410 nm at 30° C. every 30 second for 15 min.
To measure initial enzyme activity, similar procedure was performed except the step of enzyme incubation at 40° C. for 60 min.

[3] = test system: whey protein isolate (WPI); test: 15% WPI hydrolysis with endopeptidase and proline tolerant tripeptidyl peptidase homologues; assay type: biochemical; settings: after 7 h of hydrolysis, compared to the reference (endopeptidase); FIG. 14
Experimental: For WPI hydrolysis, Lacprodan-9224 (Arla Food Ingredients, Denmark) was employed, a 15% (w/w) WPI suspension was prepared in H2Od and adjusted to pH 4.5 with acetic acid (Sigma-Aldrich, Denmark). To prevent microbial growth, 0.0285% (w/w) NaN3 was added. Subsequently, 1% (w/w) Alphalase® FP2 was added and a volume of 200 μl of the WPI suspension was transferred into each of the 96 wells of a microtiter plate (MTP; VWR, Denmark). Following this, 5 μl of each proline tolerant tripeptidyl peptidase homologue containing either 0 or 4375nkatH-Ala-Ala-Ala-pNA/mL were added to the particular wells of the MTP. Then, the MTP was sealed and placed in an incubator at 40° C. (iEMS incubator/shaker HT, Thermo Scientific, Denmark).
[…] Unhydrolyzed, precipitated WPI was removed by filtration (0.22 μm; Corning 3504 filter plate, Corning Incorporated, USA). The filtered WPI hydrolysate was employed for o-phthaldehyde (OPA) derivatization (Nielsen, Petersen et al. 2001). The OPA derivatization was conducted according to Nielsen et al., (2001) with minor modifications. A sample volume of 25 μl was transferred to a well and 175 μl of OPA-reagent, dissolved in trisodium phosphate-dodecahydrate, was added subsequently. The measured absorptions at 340 nm in a MTP reader (VersaMax, Molecular Devices, Denmark) were transformed into serine equivalents employing a serine calibration curve (0-2 mM).

[4] = listed as TRI071 (pool1) 2% glu/soph
[5] = listed as TRI071 (pool1) 4% glu/soph

| Molecule | Ki [1] | OD410nm (Final) [2, 4] | OD410nm (Final) [2, 5] | OD410nm (Initial) [2, 4] | OD410nm (Initial) [2, 5] | relative increase of SE [3] |
| --- | --- | --- | --- | --- | --- | --- |
| C[C@H](N)C(=O)O [Alanine, alanine] | no inhibition at all |  |  |  |  |  |
| B1 |  | 0.589 and 0.672 | 0.453 and 0.6 | 0.757 and 0.815 | 0.466 and 0.67 | about 64% |
